Patent US20230242902A1, “A HIGHLY ERROR-PRONE […] R[…] FOR TARGETED CONTINUOUS EVOLUTION IN VIVO” (The Regents of the University of California, priority 2017, published 2023)
Changes are numbered by the printed parent chain. Names and notes keep the numbering of the source.

B1: N684D: TP-DNAP1 variant (protein)
chain: MDYKDKALNDLRNVYADFDSLPLDFRQILIKDRATLLQKEDVEKKILERQEDAKKYAEYLKQSEIPERISLPNIKRHKGVSISFEETSEDMVLEPRPFIFDGLNIRCFRRETIFSLKNKILNMVKESSSFKNVSRQSVSFMYFKIFNKGKVIASTKSVNIYEDKIDERLEDLCNNFDDVLKKIIDVTYGYESLFVSETYSYVIFYAKSIYFPQPRCVNNWGNNIPNILTFDSFKLFTANKNNVSCIKQCSRFLWQKDFNTLEEMIEYKNGNICIVTPQLHINDVRDIKSFNDIRLYSESPIKTFSVIDNTITYLFYFKEHLGVIFNITKSRHDRRVTKFSPLSKFSDVKNITVCFDIESYFDPEKESNQVNIPFICCASIIYNKVIGNIVDFEGRDCVAQMIEYVVDICGELNISSVELIAHNGGGYDFHYILSSMYNPAAIKNILIRNNSFISFNFAHDGVKFSVKDSYSFLLCSLANASKAFLNEETFKKTDFPHHDLKTADDLYKVYKEWSSVNTEINHVVEKEKLLITSEHIVNFTKNDKSKTLIEWSKDYCRNDVLVLSKVWLEFKNAVEDIFNCELVDQTMTLAGLSYKLFQANMPFDVELRHPNKEDYFNMREALIGGRCISVNGIYKDVLCLDVKSLYPASMAFYDQPYGSFKRVSSRPKDELGIYYVRVTPNRNDKSNFFPIRSHNKITYNNFEESTYIAWYTNVDIDIGLSEGHNIEYIPFDSYGNIGYSWSKKGKIFEKYIKDVLYKLKIKYEKQNNKVKRNVIKIIMNSLWGKFAQKWVNFEYFIKSEDDIDFESEEAYKIWDTDFMLIKKIKESTYSSKPIQNGVFTLSWARYHMKSIWDAGAKEGAECIYSDTDSIFVHKEHFKKNAKFMLNGLKVPIIGSEVGQLELECEFDKLLCAGKKQYMGFYTYFQDGKPCIKEKKRFKGIPSNYIIPELYAHLLSGADKEAKIQFLKFRREWGSVKGYIENKTVKAT
B2: K696M: TP-DNAP1 variant (protein)
chain: B1 chain with D684N, K696M
B3: K696C: TP-DNAP1 variant (protein)
chain: B1 chain with D684N, K696C
B4: K696T: TP-DNAP1 variant (protein)
chain: B1 chain with D684N, K696T
B5: H694I: TP-DNAP1 variant (protein)
chain: B1 chain with D684N, H694I
B6: R692K: TP-DNAP1 variant (protein)
chain: B1 chain with D684N, R692K
B7: R692V: TP-DNAP1 variant (protein)
chain: B1 chain with D684N, R692V
B8: N695E: TP-DNAP1 variant (protein)
chain: B1 chain with D684N, N695E
B9: T698A: TP-DNAP1 variant (protein)
chain: B1 chain with D684N, T698A
B10: N695Q: TP-DNAP1 variant (protein)
chain: B1 chain with D684N, N695Q
B11: R692F: TP-DNAP1 variant (protein)
chain: B1 chain with D684N, R692F
B12: E298G: TP-DNAP1 variant (protein)
chain: B1 chain with E298G, D684N
B13: K696S, E704V: TP-DNAP1 variant (protein)
chain: B1 chain with D684N, K696S, E704V
B14: N695H: TP-DNAP1 variant (protein)
chain: B1 chain with D684N, N695H
B15: R692W: TP-DNAP1 variant (protein)
chain: B1 chain with D684N, R692W
B16: R692F, T706E: TP-DNAP1 variant (protein)
chain: B1 chain with D684N, R692F, T706E
B17: N695F: TP-DNAP1 variant (protein)
chain: B1 chain with D684N, N695F
B18: S693R: TP-DNAP1 variant (protein)
chain: B1 chain with D684N, S693R
B19: R692I: TP-DNAP1 variant (protein)
chain: B1 chain with D684N, R692I
B20: K696G: TP-DNAP1 variant (protein)
chain: B1 chain with D684N, K696G
B21: R692C: TP-DNAP1 variant (protein)
chain: B1 chain with D684N, R692C
B22: N695S: TP-DNAP1 variant (protein)
chain: B1 chain with D684N, N695S
B23: K696Y: TP-DNAP1 variant (protein)
chain: B1 chain with D684N, K696Y
B24: N687G: TP-DNAP1 variant (protein)
chain: B1 chain with D684N, N687G
B25: H694T: TP-DNAP1 variant (protein)
chain: B1 chain with D684N, H694T
B26: S693Q: TP-DNAP1 variant (protein)
chain: B1 chain with D684N, S693Q
B27: E298R: TP-DNAP1 variant (protein)
chain: B1 chain with E298R, D684N

Test system: p1
Test: p1 copy number by p1-encoded mKate2 fluorescence
Format: cell-based, S. cerevisiae
Details: OR-Y24, measured in triplicate
Procedure: A calibration curve was established to correlate p1 copy number, determined via quantitative PCR (qPCR), with fluorescence of p1-encoded mKate2 (Table 1). Five TP-DNAP1 variants representing a wide range of copy numbers were transformed into ORY24 and passaged until w.t. p1 was displaced. The five OR-Y24 strains were grown to saturation, diluted 1:10,000 to mimic p1 fluctuation tests, and grown in triplicate 100 μL cultures and duplicate 40 mL cultures. 100 μL saturated cultures were subject to fluorescence measurement of mKate2 (ex/em=561 nm/620 nm, bandwidth=15 nm) on a flow cytometer (Invitrogen Attune NxT). Whole-cell DNA extracts were prepared from 40 mL cultures and used as templates for qPCR measurement of p1-encoded leu2 (Q180*), as described previously (Ravikumar et al., 2014). p1-encoded LEU2 was PCR amplified with qPCR-Leu2F and qPCR Leu2R; and genomic LEU3 was PCR amplified with qPCR-Leu3F and qPCR-Leu3R using SyBR Green (Fisher Scientific) master mix.
To assay p1 copy number for large-scale p1 fluctuation tests, additional replicates of OR-Y24 strains were grown from the 1:10,000 dilution in triplicate and saturated cultures were subject to fluorescence measurement via flow cytometry. Fluorescence measurements were converted to copy number with the linear calibration curve.
To assay relative p1 copy number for small-scale p1 fluctuation tests, an additional 200 μL culture of OR-Y24 strains were grown from the 1:10,000 dilution. 200 μL saturated cultures were subject to an OD600 measurement and fluorescence measurement of mKate2 (ex/em=588 nm/633 nm), using a microplate reader (TECAN Infinite M200 PRO). A linear relationship was assumed between p1 copy number and OD600-normalized mKate2 fluorescence. Copy numbers were calculated from normalization to a w.t. TP-DNAP1 control.
For a few large-scale p1 fluctuation tests, p1 copy number was assayed by the method of small scale p1 fluctuation tests (i.e. microplate reader measurement). For these experiments, mutant TP-DNAP1 p1 copy numbers were calculated by normalization to a w.t. TP-DNAP1 control. The copy number of this control was assumed to be the average w.t. TP-DNAP1 copy number from all large-scale p1 fluctuation tests that used flow cytometry measurements.
TP-DNAP1 plasmids were isolated from these strains and subject to Sanger sequencing. 210 unique variants were identified and the corresponding plasmids were re-transformed into OR-Y24. Transformed strains were passaged in SC-UH until w.t. p1 was displaced, and subject to p1 copy number measurement in triplicate. Four high copy variants were directly subject to qPCR measurements for validation. To test the suppressor activity of the G410H mutation, which yields increased p1 copy number, this amino acid change was added to several low-activity TP-DNAP1 variants. p1 copy number was similarly assayed for these strains.

Row | Molecule | Mean fold-increase over w.t. (p1 copy number) [fold]
1 | B1 | 1.54
2 | B2 | 1.71
3 | B3 | 1.87
4 | B4 | 2.12
5 | B5 | 1.78
6 | B6 | 1.88
7 | B7 | 2.29
8 | B8 | 2.34
9 | B9 | 2.02
10 | B10 | 1.68
11 | B11 | 2.6
12 | B12 | 2.64
13 | B13 | 1.86
14 | B14 | 1.76
15 | B15 | 1.97
16 | B16 | 1.89
17 | B17 | 1.44
18 | B18 | 2.09
19 | B19 | 1.99
20 | B20 | 2.11
21 | B21 | 1.69
22 | B22 | 1.82
23 | B23 | 1.49
24 | B24 | 1.65
25 | B25 | 1.92
26 | B26 | 2.22
27 | B27 | 2.6
